B1: Glu3-tagged Bax α9 peptide (Bax residues Gly166 to Gly192) (peptide, UniProt Q07812 166-192, looked up)
chain: GTPTWQTVTIFVAGVLTASLTIWKKMG

The data set “cross-linking” concerns the molecule itself. The data set can be described thus: cross-linking.
The target in data set [1] is B1. The data set can be described thus: NMR paramagnetic relaxation enhancement.

No end group written: not given here. *: point of attachment. MTSL = nitroxide spin label, CC1(C)C=C(CS*)C(C)(C)N1[O]

B1: in “cross-linking”, the stoichiometry N (as a rule, the number of molecules, sites or subunits per partner or assembly) came out at 2.
As for GTPTWQTVTIFVAC(MTSL)VLTASLTIWKKMG (peptide, UniProt Q07812 166-192, looked up) [Bax (α9) G179C with MTSL spin probe], the binding result in data set [1] is listed as “binds”.
Still for that read-out and setting: the value for GTPTWQTVTIFVAGVLTASLTIC(MTSL)KKMG (peptide, UniProt Q07812 166-192, looked up) [Bax (α9) W188C with MTSL spin probe] was “binds”.
Still for that read-out and setting: as for GTPTWQC(MTSL)VTIFVAGVLTASLTIWKKMG (peptide, UniProt Q07812 166-192, looked up) [Bax (α9) T172C with MTSL spin probe], the entry is “binds”.

These data come from publication doi:10.64898/2025.12.30.697096 (bioRxiv, 2025).
